Among the targets are GRIP2_4, Q9C0E4; CASK, O14936; ARHGEF12, Q9NZN5-2; Inadl_4, Q8NI35; MAST2, Q6P0Q8; MAGI2_6, Q86UL8; PDLIM1, O00151; FRMPD2_2, Q68DX3; DLG4_1, P78352; PTPN3, P26045.
What all share (assay): holdup assay
Holding throughout (parameters): key: below the threshold = too weak to quantify, mostly under pKd 3.1 to 4
What all share (details): plain residues with an end cap or a label only (N-terminal biotin on a linker: ado-ado)

The target in the next test is T1, NHERF3_4, Q5T2W1.
T1 sequence (Q5T2W1 373-468, limits assumed, looked up): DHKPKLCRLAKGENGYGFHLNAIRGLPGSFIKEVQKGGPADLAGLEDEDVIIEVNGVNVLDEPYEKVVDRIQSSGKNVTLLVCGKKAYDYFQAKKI

The target of another test is T2, SIPA1L2, Q9P2F8.
T2 sequence (Q9P2F8 945-1036, limits assumed, looked up): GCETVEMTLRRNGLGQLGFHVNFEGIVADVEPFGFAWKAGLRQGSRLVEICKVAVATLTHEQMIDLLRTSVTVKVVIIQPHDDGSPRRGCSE

Another test deals with T3, APBA1_2, Q02410.
T3 sequence (Q02410 742-832, limits assumed, looked up): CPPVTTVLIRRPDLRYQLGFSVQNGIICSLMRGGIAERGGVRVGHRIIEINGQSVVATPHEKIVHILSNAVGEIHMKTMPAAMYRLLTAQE

In the next test the target is T4, APBA2_2, Q99767.
T4 sequence (Q99767 654-744, limits assumed, looked up): T3 sequence (Q02410 742-832, limits assumed, looked up) with R10K, R15K, P59A, H65Q, I66A, A70S, Y84F, A89G

Another test addresses T5, MPDZ_5, O75970.
T5 sequence (O75970 695-796, limits assumed, looked up): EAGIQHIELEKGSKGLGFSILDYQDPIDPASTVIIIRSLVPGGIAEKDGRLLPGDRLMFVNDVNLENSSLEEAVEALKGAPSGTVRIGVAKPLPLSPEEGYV

The target of the next test is T6, TX1BP3, O14907.
T6 sequence (O14907 10-122, limits assumed, looked up): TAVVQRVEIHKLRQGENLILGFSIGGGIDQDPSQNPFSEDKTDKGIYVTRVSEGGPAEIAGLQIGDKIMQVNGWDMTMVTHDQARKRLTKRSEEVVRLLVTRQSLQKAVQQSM

The next test concerns the target T7, MPP7, Q5T2T1.
T7 sequence (Q5T2T1 134-230, limits assumed, looked up): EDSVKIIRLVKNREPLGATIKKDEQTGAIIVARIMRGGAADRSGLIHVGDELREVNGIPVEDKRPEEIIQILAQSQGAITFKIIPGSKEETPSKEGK

In another test the target is T8, ARHGAP21, Q5T5U3.
T8 sequence (Q5T5U3 45-169, limits assumed, looked up): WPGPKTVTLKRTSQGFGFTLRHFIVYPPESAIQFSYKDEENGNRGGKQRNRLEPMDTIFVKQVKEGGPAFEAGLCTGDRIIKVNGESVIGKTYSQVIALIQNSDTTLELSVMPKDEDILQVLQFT

In the next test the target is T9, PDZD7_3, Q9H5P4.
T9 sequence (Q9H5P4 857-944, limits assumed, looked up): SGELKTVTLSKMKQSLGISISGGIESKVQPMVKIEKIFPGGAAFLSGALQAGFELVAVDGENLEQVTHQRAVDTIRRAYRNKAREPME

The target in the next test is T10, LIN7B, Q9HAP6.
T10 sequence (Q9HAP6 88-185, limits assumed, looked up): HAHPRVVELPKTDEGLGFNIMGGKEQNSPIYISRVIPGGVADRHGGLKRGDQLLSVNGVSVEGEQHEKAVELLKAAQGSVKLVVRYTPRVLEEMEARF

In another test the target is T11, MPP2, Q14168.
T11 sequence (Q14168 180-250, limits assumed, looked up): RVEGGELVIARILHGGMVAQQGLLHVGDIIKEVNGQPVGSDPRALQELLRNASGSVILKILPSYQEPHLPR

The next test has as its target T12, SNTB1, Q13884.
T12 sequence (Q13884 107-205, limits assumed, looked up): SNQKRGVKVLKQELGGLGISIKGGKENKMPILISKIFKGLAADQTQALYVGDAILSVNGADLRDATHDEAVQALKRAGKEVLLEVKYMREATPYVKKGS

The next test has as its target T13, NHERF3_3, Q5T2W1.
T13 sequence (Q5T2W1 238-333, limits assumed, looked up): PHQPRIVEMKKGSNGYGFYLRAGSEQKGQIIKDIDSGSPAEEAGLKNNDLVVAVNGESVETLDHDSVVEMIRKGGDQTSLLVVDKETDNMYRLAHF

The target in a further test is T14, GRIP1_5, Q9Y3R0.
T14 sequence (Q9Y3R0 568-668, limits assumed, looked up): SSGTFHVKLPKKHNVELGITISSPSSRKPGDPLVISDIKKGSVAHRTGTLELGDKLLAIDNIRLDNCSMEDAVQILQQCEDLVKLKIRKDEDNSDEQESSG

The term pKd denotes the Kd on a negative log10 scale, so that one unit is a factor of ten.

Changes are numbered by the printed parent chain.

Sequence of GRIP2_4, Q9C0E4 (Q9C0E4 446-548): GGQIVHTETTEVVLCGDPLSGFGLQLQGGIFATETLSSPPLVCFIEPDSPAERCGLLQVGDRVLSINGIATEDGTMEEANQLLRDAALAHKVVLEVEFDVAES
Sequence of CASK, O14936 (O14936 487-570): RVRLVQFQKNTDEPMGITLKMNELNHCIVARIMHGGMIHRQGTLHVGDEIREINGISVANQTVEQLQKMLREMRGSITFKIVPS
Sequence of DLG4_1, P78352 (P78352 62-152): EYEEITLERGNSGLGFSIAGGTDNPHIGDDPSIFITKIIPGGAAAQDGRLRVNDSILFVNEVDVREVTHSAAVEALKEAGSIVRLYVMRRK
Sequence of Inadl_4, Q8NI35 (Q8NI35 547-651): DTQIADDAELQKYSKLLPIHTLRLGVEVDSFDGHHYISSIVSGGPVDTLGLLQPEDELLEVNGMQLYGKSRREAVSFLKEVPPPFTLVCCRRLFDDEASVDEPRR
Sequence of FRMPD2_2, Q68DX3 (Q68DX3 944-1038): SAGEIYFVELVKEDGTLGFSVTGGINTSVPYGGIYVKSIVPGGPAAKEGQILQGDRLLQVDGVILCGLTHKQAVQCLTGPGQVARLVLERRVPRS
Sequence of MAGI2_6, Q86UL8 (Q86UL8 1141-1229): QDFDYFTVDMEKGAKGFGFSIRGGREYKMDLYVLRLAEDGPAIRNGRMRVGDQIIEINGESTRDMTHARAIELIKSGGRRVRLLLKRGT
Sequence of PTPN3, P26045 (P26045 505-587): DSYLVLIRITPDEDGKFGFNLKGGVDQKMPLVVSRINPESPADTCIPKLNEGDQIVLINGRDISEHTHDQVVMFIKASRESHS
Sequence of ARHGEF12, Q9NZN5-2 (Q9NZN5 other isoform, or with tags, fused parts or gaps): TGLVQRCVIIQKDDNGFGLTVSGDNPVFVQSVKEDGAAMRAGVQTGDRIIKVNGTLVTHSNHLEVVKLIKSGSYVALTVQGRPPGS
Sequence of PDLIM1, O00151 (O00151 1-87): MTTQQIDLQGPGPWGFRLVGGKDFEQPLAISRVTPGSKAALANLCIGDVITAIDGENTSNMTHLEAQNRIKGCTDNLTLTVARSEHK
Sequence of MAST2, Q6P0Q8 (Q6P0Q8 1099-1202): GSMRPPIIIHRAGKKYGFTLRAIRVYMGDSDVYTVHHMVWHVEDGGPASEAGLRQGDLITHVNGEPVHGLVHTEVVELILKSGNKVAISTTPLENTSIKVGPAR

In the case of EDLEDEWEVI [TECPR2, O15040], the pKd result was “below the threshold” with NHERF3_4, Q5T2W1; “below the threshold” with GRIP2_4, Q9C0E4; “below the threshold” with CASK, O14936; “below the threshold” with ARHGEF12, Q9NZN5-2; “below the threshold” with Inadl_4, Q8NI35; 4.14 in the test with MAST2, Q6P0Q8. Moreover, the pKd with MAGI2_6, Q86UL8 is 3.56; in the test with SIPA1L2, Q9P2F8, “below the threshold”; in the test with APBA1_2, Q02410 it was “below the threshold”; with APBA2_2, Q99767, “below the threshold”; with MPDZ_5, O75970 it was “below the threshold”; with PDLIM1, O00151 it was “below the threshold”. Also, the pKd result with TX1BP3, O14907 is “below the threshold”; in the test with MPP7, Q5T2T1 it was “below the threshold”; with ARHGAP21, Q5T5U3, “below the threshold”; in the test with PDZD7_3, Q9H5P4 it was 3.92; with FRMPD2_2, Q68DX3 it was “below the threshold”; with DLG4_1, P78352, “below the threshold”. The pKd was 3.74 in the test with LIN7B, Q9HAP6; “below the threshold” with MPP2, Q14168; 3.68 in the test with SNTB1, Q13884; “below the threshold” in the test with PTPN3, P26045; “below the threshold” with NHERF3_3, Q5T2W1; “below the threshold” in the test with GRIP1_5, Q9Y3R0.

The record behind these values is PMC9482650, “Quantitative fragmentomics allow affinity mapping of interactomes” (Nature Communications, 2022).
